Experimental findings from patent US20200376136A1 are described below.

The test has as its target human six-transmembrane epithelial antigen of prostate 2 (STEAP2) (human) (UniProt Q8NFT2). The test is described as follows: FACS on HEK293 cells (low STEAP2), MFI fold above unstained, average at 100-300 nM antibody.

human six-transmembrane epithelial antigen of prostate 2 (STEAP2) (human), sequence (Q8NFT2 whole entry): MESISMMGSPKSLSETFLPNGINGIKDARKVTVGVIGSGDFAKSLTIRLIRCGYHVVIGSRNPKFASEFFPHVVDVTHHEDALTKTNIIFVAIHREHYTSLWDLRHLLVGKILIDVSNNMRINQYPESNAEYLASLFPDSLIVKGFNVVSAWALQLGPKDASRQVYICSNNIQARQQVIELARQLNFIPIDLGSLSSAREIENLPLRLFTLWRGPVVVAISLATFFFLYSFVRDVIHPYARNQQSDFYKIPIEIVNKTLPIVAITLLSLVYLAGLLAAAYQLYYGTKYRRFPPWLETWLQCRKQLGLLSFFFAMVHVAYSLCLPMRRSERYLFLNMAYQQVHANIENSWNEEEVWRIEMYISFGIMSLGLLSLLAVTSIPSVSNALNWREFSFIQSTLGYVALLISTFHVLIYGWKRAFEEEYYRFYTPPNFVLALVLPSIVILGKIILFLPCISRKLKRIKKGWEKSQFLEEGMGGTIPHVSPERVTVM

Regarding hIgG1 Isotype Control-I (antibody), the Avg F.A.B (fold above background) (fold above background) was 1.

hIgG1 Isotype Control-II (antibody): the Avg F.A.B (fold above background) (fold above background) is 1.7.
